Results as given in patent publication US20110118447A1.
Numbering of substitutions follows the chain as printed. Names may count otherwise.

B1: C5A (XPA23) VH P53Y (antibody, V domains shown)
VH: EVQLLESGGGLVQPGGSLRLSCAASGFTFSKYFMFWVRQAPGKGLEWVSVISYSGGMTRYADSVKGRFTISRDNSKNTLYLQMNSLRAEDTAVYYCARVGYGGNSDYWGQGTLVTVSS
VL: DIQMTQSPSSVSASVGDRLTIICRASQDINRWLAWYQQTPGNAPKLLIHSATSLQSGVPSRFSGSGSGTDFTLTINSLQPEDFATYYCQQADSFPLTFGGGTKVEIK
B2: C5A (XPA23) VH G55Q (antibody, V domains shown)
VH: B1 VH with Y53P, G55Q
VL: B1 VL
B3: C5A (XPA23) VH S54N (antibody, V domains shown)
VH: B1 VH with Y53P, S54N
VL: B1 VL
B4: C5A (XPA23) VH G55N (antibody, V domains shown)
VH: B1 VH with Y53P, G55N
VL: B1 VL
B5: C5A (XPA23) VH S54Q (antibody, V domains shown)
VH: B1 VH with Y53P, S54Q
VL: B1 VL
B6: C5A (XPA23) VH G55R (antibody, V domains shown)
VH: B1 VH with Y53P, G55R
VL: B1 VL
B7: C5A (XPA23) VH G55S (antibody, V domains shown)
VH: B1 VH with Y53P, G55S
VL: B1 VL
B8: C5A (XPA23) VH S54K (antibody, V domains shown)
VH: B1 VH with Y53P, S54K
VL: B1 VL
B9: C5A (XPA23) VH S54E (antibody, V domains shown)
VH: B1 VH with Y53P, S54E
VL: B1 VL
B10: C5A (XPA23) VH G55K (antibody, V domains shown)
VH: B1 VH with Y53P, G55K
VL: B1 VL
B11: C5A (XPA23) VH S54D (antibody, V domains shown)
VH: B1 VH with Y53P, S54D
VL: B1 VL
B12: C5A (XPA23) VH S54Y (antibody, V domains shown)
VH: B1 VH with Y53P, S54Y
VL: B1 VL
B13: C5A (XPA23) VH S54R (antibody, V domains shown)
VH: B1 VH with Y53P, S54R
VL: B1 VL
B14: C5A (XPA23) VH G55E (antibody, V domains shown)
VH: B1 VH with Y53P, G55E
VL: B1 VL
B15: C5A (XPA23) VH S54T (antibody, V domains shown)
VH: B1 VH with Y53P, S54T
VL: B1 VL

How the values were obtained:
[1] = target: binding partner of C5A (XPA23); assay: Biacore
[2] = target: binding partner of C5A (XPA23); assay: Biacore, K-off

| Binder | fold affinity vs original [1] [fold] | fold difference in affinity vs original [2] [fold] | fold difference in affinity vs original [1] [fold] |
| --- | --- | --- | --- |
| B1 | 0.03 | 0.03 | – |
| B2 | 0.9 | 0.9 | – |
| B3 | 0.08 | 0.08 | – |
| B4 | 0.1 | 0.1 | – |
| B5 | 1.01 | 1.01 | – |
| B6 | 0.95 | 0.95 | – |
| B7 | 1.02 | 1.02 | – |
| B8 | 1.53 | 1.53 | – |
| B9 | 0.03 | 0.03 | – |
| B10 | 0.11 | 0.11 | – |
| B11 | 0.12 | 0.12 | – |
| B12 | 0.99 | 0.99 | – |
| B13 | 1.43 | 1.43 | – |
| B14 | 0.11 | 0.11 | – |
| B15 | – | 0.14 | 0.14 |
